Experimental findings from FireProtDB (doi:10.1021/acs.biochem.7b00833) are described below.

Several values for one entry are separate records, joined by “and”; a condition that tells them apart may be missing. Equal values may be shown once.

To fix the notation:
B1: SCO1 protein homolog, P54178 (parent)
chain: MKVIKGLTAGLIFLFLCACGGQQIKDPLNYEVEPFTFQNQDGKNVSLESLKGEVWLADFIFTNCETICPPMTAHMTDLQKKLKAENIDVRIISFSVDPENDKPKQLKKFAANYPLSFDNWDFLTGYSQSEIEEFALKSFKAIVKKPEGEDQVIHQSSFYLVGPDGKVLKDYNGVENTPYDDIISDVKSASTLK

The variants in the data set derive from B1. The conditions noted are these: Bacillus subtilis (strain 168), pH 7, CD, Sodium Phosphate Buffer, structure 1XZO, whole UniProt chain shown; for ddG of mutation (higher = less stable) / denaturant m value / denaturant midpoint (higher = more stable) / unfolding free energy: 25 °C, Urea.

On to W55A F61W, for which the “ddG of mutation (higher = less stable)” value amounted to 8.03 kcal/mol, the denaturant m value amounted to 3.74 kcal/mol/M, the “denaturant midpoint (higher = more stable)” value (shortened to “denaturant midpoint”) turned out to be 0.8 M and the unfolding free energy was found to be 1.9 kcal/mol.

Consider W55F F61W, for which the “ddG of mutation (higher = less stable)” value amounted to 4.14 kcal/mol, the denaturant m value was found to be 3.37 kcal/mol/M, the “denaturant midpoint” value was 1.72 M and the unfolding free energy was 5.79 kcal/mol. For the same variant, the “change of melting temperature, mutant - wild type (higher = more stable)” value (shortened to “change of melting temperature, mutant”) (Thermal) was -6.2 °C and -9.1 °C.

On to F61W, for which the “ddG of mutation (higher = less stable)” value was -2.87 kcal/mol, the denaturant m value turned out to be 4.24 kcal/mol/M and the unfolding free energy was found to be 12.8 kcal/mol. The “change of melting temperature, mutant” value (Thermal) was 4.3 °C and -0.6 °C.

In the case of W120F F61W, the “ddG of mutation (higher = less stable)” value came to 4.18 kcal/mol, the denaturant m value was 3.17 kcal/mol/M, the “denaturant midpoint” value was 1.81 M and the unfolding free energy was found to be 5.75 kcal/mol. For the same variant, where the note is “Thermal”, the “change of melting temperature, mutant” value is -7.1 °C and -11.5 °C.

With W55A W120A F61W, the “change of melting temperature, mutant” value (Thermal) was -18 °C and -15.7 °C.

In general, Tm refers to the temperature at the midpoint of the melting transition. For the variant W120F, the “ddG of mutation (higher = less stable)” value stood at 2.89 kcal/mol, the denaturant m value was 3.93 kcal/mol/M, the “denaturant midpoint” value was determined as 1.77 M and the unfolding free energy was 7.04 kcal/mol. Where the note is “Thermal”, the Tm was found to be 43.5 °C.

On to W55A, for which the “ddG of mutation (higher = less stable)” value was found to be 8.93 kcal/mol, the denaturant m value came out at 1.92 kcal/mol/M, the “denaturant midpoint” value is 0.75 M and the unfolding free energy came out at 1 kcal/mol.
